We go through 14 molecules from patent US20240101668A1 (WUGEN, published 2024).

One test deals with T1, huCLL1-Q244-Avi-Tev-His (human, UniProt Q5QGZ9 65-265).
T1 construct: extracellular domain; also called CLL-1 K244Q
T1 sequence (looked up): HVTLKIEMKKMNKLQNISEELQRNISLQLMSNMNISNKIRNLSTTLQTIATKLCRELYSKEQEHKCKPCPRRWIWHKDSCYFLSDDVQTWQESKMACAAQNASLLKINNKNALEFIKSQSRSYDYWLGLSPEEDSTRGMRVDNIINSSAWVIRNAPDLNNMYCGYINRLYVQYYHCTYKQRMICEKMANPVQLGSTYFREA
Put plainly: BLI.

The target of another test is T2, huCLL1-K244-Avi-Tev-His (human, UniProt Q5QGZ9 65-265).
T2 construct: extracellular domain
T2 sequence (looked up): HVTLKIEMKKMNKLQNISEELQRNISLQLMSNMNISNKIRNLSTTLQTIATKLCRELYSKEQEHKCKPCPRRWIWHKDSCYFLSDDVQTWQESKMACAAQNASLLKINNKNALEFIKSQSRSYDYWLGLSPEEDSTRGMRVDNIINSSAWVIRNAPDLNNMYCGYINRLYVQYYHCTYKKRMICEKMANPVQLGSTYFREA
In words: BLI. (In general: Biolayer interferometry detects binding as a change in optical thickness at a sensor tip.)
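Note: Bio-layer interferometry with scFvs captured on biosensors via anti-V5 antibody, exposed 2 min to CLL-1 K244 or Q244 protein, 5 min dissociation, scored as binding, no binding or ambiguous.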

Experimental for huCLL1-K244-Avi-Tev-His: (§1) Discovered scFvs were analyzed for binding to huCD33-R69-His or huCD33-G69-Fc recombinant proteins (for anti-CD33 scFvs; for CLL-1 scFvs, huCLL1-K244-Avi-Tev-His or huCLL1-Q244-Avi-Tev-His were used; for FLT3, huFLT3-T227-His or huFLT3-M227-Fc were used) using BLI on a ForteBio Octet HTX instrument. Streptavidin-coated biosensors were loaded with biotinylated anti-V5 tag monoclonal antibody for 5 min and were then quenched and blocked with 20 μM amine-PEG2-Biotin for 5 min. scFvs were captured on biosensors from scFv clone periplasmic extracts. huCD33 (or huCLL-1, or huFLT3) proteins were then associated with the captured scFvs for 2 minutes, followed by dissociation with buffer (1×HBST [10 mM HEPES pH 7.4, 150 mM NaCl, 0.05% Tween-20], 1 g/L BSA) for 5 minutes. […] Data was fitted with 1:1 Langmuir equation and off-rate values were reported.
(§2) Analogous methods were used to assess selectivity of binding of polypeptides to CLL-1 K244 or CLL-1 Q244.
Experimental for huCLL1-Q244-Avi-Tev-His: as §1, §2

B1: Polypeptide No. 66 (scFv, V domains shown)
VH: QVQLVQSGAEVKKPGASVKVSCKASGYTFNTYYMHWVRQAPGQGLEWMGWMHPNTGNTGYAQKFQGRVTMTRDTSTSTVYMELSSLRSEDTAVYYCARGTTSDAFDIWGQGTMVTVSS
VL: DIQMTQSPSSLSASVGDRVTITCRASQSIFSYLNWYQQKPGKAPKLLIYSASNLQSGVPSRFSGSGSGTDFTLTISSLQPEDFATYYCQQSYSTPITFGQGTKVEIKR
notes: scFv
B1: the binding result with huCLL1-Q244-Avi-Tev-His is given as “no binding”; in the test with huCLL1-K244-Avi-Tev-His, “binds”.

B2: Polypeptide No. 55 (scFv, V domains shown)
VH: QVQLVQSGAEVKKPGASVKVSCKASGYTFTGYHMHWVRQAPGQGLEWMGWINPNTGGTNYAQKFQGRVTMTRDTSTSTVYMELSSLRSEDTAVYYCARPNTAMVPPYYYYYGMDVWGQGTLVTVSS
VL: DIQMTQSPSSLSASVGDRVTITCQASQDISNYLNWYQQKPGKAPKLLIYAASSLQSGVPSRFSGSGSGTDFTLTISSLQPEDFATYYCQQYNSYPLTFGQGTKLEIKR
notes: scFv
As to B2, the binding result in the test with huCLL1-Q244-Avi-Tev-His is recorded as “no binding”; with huCLL1-K244-Avi-Tev-His, “binds”.

B3: Polypeptide No. 65 (scFv, V domains shown)
VH: QVQLVQSGAEVKKPGASVKVSCKASGYTFTGYYMHWVRQAPGQGLEWMGWINPNSGGTNYAQKFQGRVTMTRDTSTSTVYMELSSLRSEDTAVYYCAREIGGYDNYYYYGMDVWGQGTTVTVSS
VL: DIQMTQSPSSLSASVGDRVTITCRASQSIGTYLNWYQQKPGKAPKLLIYAASSLQSGVPSRFSGSGSGTDFTLTISSLQPEDFATYYCQQSYTDPWTFGQGTKVEIKR
notes: scFv
As for B3, the binding result with huCLL1-Q244-Avi-Tev-His is given as “no binding”; in the test with huCLL1-K244-Avi-Tev-His, “binds”.

B4: Polypeptide No. 57 (scFv, V domains shown)
VH: QVQLVQSGAEVKKPGASVKVSCKASGYTFNNYGITWVRQAPGQGLEWMGIINPITGVTTYAQNFQGRVTMTRDTSTSTVYMELSSLRSEDTAVYYCASGEQQLVLFDYWGQGTLVTVSS
VL: DIQMTQSPSSLSASVGDRVTITCQASQDINDYLNWYQQKPGKAPKLLIYGASNLQSGVPSRFSGSGSGTDFTLTISSLQPEDFATYYCLQHNSYPLTFGQGTKLEIKR
notes: scFv
Turning to B4, the figures for the binding result in the test with huCLL1-Q244-Avi-Tev-His and in the test with huCLL1-K244-Avi-Tev-His were “no binding” and “binds”, respectively.

B5: Polypeptide No. 70 (scFv, V domains shown)
VH: EVQLLESGGGLVQPGGSLRLSCAASGMSVTSNHMSWVRQAPGKGLEWVSSIYPDGKTYYADSVKGRFTISRDNSKNTLYLQMNSLRAEDTAVYYCARDEEDWFDPWGQGTLVTVSS
VL: DIQMTQSPSSLSASVGDRVTITCQASQSISNWLAWYQQKPGKAPKLLIYAASTLQSGVPSRFSGSGSGTDFTLTISSLQPEDFATYYCQQSYSTPWTFGQGTKVEIKR
notes: scFv
For B5, the binding result with huCLL1-Q244-Avi-Tev-His was “binds”; with huCLL1-K244-Avi-Tev-His it was “no binding”.

B6: Polypeptide No. 68 (scFv, V domains shown)
VH: QVQLVQSGAEVKKPGASVKVSCKASGYTFSSYDINWVRQAPGQGLEWVGWINPRNGGTDYAQKFQGRVTMTRDTSTSTVYMELSSLRSEDTAVYYCARHRWELDSFDYWGQGTLVTVSS
VL: DIQMTQSPSSLSASVGDRVTITCRASQSISNYLNWYQQKPGKAPKLLIYATSSLQSGVPSRFSGSGSGTDFTLTISSLQPEDFATYYCQQGYNIPFTFGQGTKLEIKR
notes: scFv
Consider B6, for which the binding result in the test with huCLL1-Q244-Avi-Tev-His is “binds”; in the test with huCLL1-K244-Avi-Tev-His it was “no binding”.

B7: Polypeptide No. 63 (scFv, V domains shown)
VH: QVQLVQSGAEVKKPGASVKVSCKASGYTFTGYYVHWVRQAPGQGLEWMGVINPSGGGSPSYAQKFQGRVTMTRDTSTSTVYMELSSLRSEDTAVYYCARDRSDVDYGMDVWGQGTTVTVSS
VL: DIQMTQSPSSLSASVGDRVTITCQASQDISNYLNWYQQKPGKAPKLLIYDASNLQSGVPSRFSGSGSGTDFTLTISSLQPEDFATYYCLQHNSYPLTFGGGTKVEIKR
notes: scFv
For the molecule B7, the figures for the binding result with huCLL1-Q244-Avi-Tev-His and with huCLL1-K244-Avi-Tev-His were “no binding” and “binds”, respectively.

B8: Polypeptide No. 59 (scFv, V domains shown)
VH: EVQLLESGGGLVQPGGSLRLSCAASGFTFSNAWMSWVRQAPGKGLEWVADISYDGTNDYYADSVKGRFTISRDNSKNTLYLQMNSLRAEDTAVYYCTTEELRFGGFDYWGQGTLVTVSS
VL: DIQMTQSPSSLSASVGDRVTITCRASQSISSYLNWYQQKPGKAPKLLIYDASNLETGVPSRFSGSGSGTDFTLTISSLQPEDFATYYCQQANSFPLTFGQGTKVEIKR
notes: scFv
Regarding B8, the binding result with huCLL1-Q244-Avi-Tev-His is recorded as “no binding”; in the test with huCLL1-K244-Avi-Tev-His, “binds”.

B9: Polypeptide No. 64 (scFv, V domains shown)
VH: QVQLVQSGAEVKKPGASVKVSCKASGYTFTDYYMHWVRQAPGQGLEWMGLIDPSGGSTNSLQKFQGRVTMTRDTSTSTVYMELSSLRSEDTAVYYCARDVGFGELSFDIWGQGTTVTVSS
VL: DIVMTQSPLSLPVTPGEPASISCRSSQSLLHSNGYNYLDWYLQKPGQSPQLLIYAASTLQSGVPDRFSGSGSGTDFTLKISRVEAEDVGVYYCMQGTHWPPTFGPGTKVDIKR
notes: scFv
In the case of B9, the binding result is “no binding” in the test with huCLL1-Q244-Avi-Tev-His and “binds” with huCLL1-K244-Avi-Tev-His.

B10: Polypeptide No. 60 (scFv, V domains shown)
VH: QVQLVQSGAEVKKPGSSVKVSCKASGGTFSSYAISWVRQAPGQGLEWMGGIIPMFGTANYAQKFQGRVTITADESTSTAYMELSSLRSEDTAVYYCARDLGYSNAGGTLHYWGQGTLVTVSS
VL: EIVMTQSPATLSVSPGERATLSCRASQSIGTYLAWYQQKPGQAPRLLIYDASSRATGIPARFSGSGSGTEFTLTISSLQSEDFAVYYCQQYKSYPLTFGGGTKVEIKR
notes: scFv
Turning to B10, the binding result with huCLL1-Q244-Avi-Tev-His is on record as “no binding”; in the test with huCLL1-K244-Avi-Tev-His, “binds”.

B11: Polypeptide No. 56 (scFv, V domains shown)
VH: QVQLVQSGAEVKKPGASVKVSCKASGYTFTSYDINWVRQAPGQGLEWMGWMNPNSGNTGYAQKFQGRVTMTRDTSTSTVYMELSSLRSEDTAVYYCARVSATGTYGLDYWGQGTLVTVSS
VL: DIQMTQSPSSLSASVGDRVTITCRASHSISSWLAWYQQKPGKAPKLLIYDASNLETGVPSRFSGSGSGTDFTLTISSLQPEDFATYYCQQADSFPLTFGGGTKVEIKR
notes: scFv
As to B11, the binding result was “no binding” with huCLL1-Q244-Avi-Tev-His and “binds” with huCLL1-K244-Avi-Tev-His.

B12: Polypeptide No. 62 (scFv, V domains shown)
VH: QVQLVQSGAEVKKPGASVKVSCKASGYTFTDHFVHWVRQAPGQGLEWMGWISAYNGNTNYAQKFQGRVTMTRDTSTSTVYMELSSLRSEDTAVYYCARAEYSYGFDYWGQGTLVTVSS
VL: DIQMTQSPSSLSASVGDRVTITCRASQGIHNYLAWYQQKPGKAPKLLIYDASNLETGVPSRFSGSGSGTDFTLTISSLQPEDFATYYCQQTSSFPYTFGQGTKLEIKR
notes: scFv
Regarding B12, the binding result with huCLL1-Q244-Avi-Tev-His is listed as “no binding”; in the test with huCLL1-K244-Avi-Tev-His it was “binds”.

B13: Polypeptide No. 58 (scFv, V domains shown)
VH: QVQLVQSGAEVKKPGASVKVSCKASGYTFTDYYLHWVRQAPGQGLEWMGWMNPNSGNTGYAQKFQGRVTMTRDTSTSTVYMELSSLRSEDTAVYYCAADVITAYGMDVWGQGTMVTVSS
VL: DIQMTQSPSSLSASVGDRVTITCRASQGISNYLAWYQQKPGKAPKLLIYDASNLETGVPSRFSGSGSGTDFTLTISSLQPEDFATYYCQQSYNVPPTFGQGTKVEIKR
notes: scFv
On to B13, for which the results for the binding result with huCLL1-Q244-Avi-Tev-His and in the test with huCLL1-K244-Avi-Tev-His were “no binding” and “binds”, respectively.

B14: Polypeptide No. 67 (scFv, V domains shown)
VH: QVQLVQSGAEVKKPGASVKVSCKASGDTFTRHYVHWVRQAPGQGLEWMGRVNPRDGRTNSAQKFQGRVTMTRDTSTSTVYMELSSLRSEDTAVYYCAKDMFPTVTGTYYYYGMDVWGQGTTVTVSS
VL: DIQMTQSPSSLSASVGDRVTITCRASQGISSYLAWYQQKPGKAPKLLIYDASNLETGVPSRFSGSGSGTDFTLTISSLQPEDFATYYCQQASGFPYTFGQGTRLEIKR
notes: scFv
For B14, the binding result with huCLL1-Q244-Avi-Tev-His is on record as “binds”; with huCLL1-K244-Avi-Tev-His, “no binding”.
